Data as given in US7192728B2, “Screening assays for agents that alter inhibitor of apoptosis (IAP) protein regulation of caspase activity” (The Burnham Institute, priority 1997, dated 2007).
“Also recorded” adds a separate entry of the source. Values belong to the molecule of their own block, whether it stands above or below them. Where a SMILES comes first, the peptide text is derived from it. The star is where a group is joined. Cbz = O=C(OCc1ccccc1)*; CH2F = FC*

What was measured:
293T cells = test: Bax-induced apoptosis and caspase activation in transfected 293T cells; type: cell-based, human; details: 24 hr; Bax alone about 25%; zVAD-fmk 50 μM
Protocol: N-benzyloxycarbonyl-Val-Ala-Asp fluoromethylketone (zVAD-fmk; 50 μM) (Bachem Calif.; Torrance, Calif.) was added immediately after transfection of the Bax plasmid. Transfection efficiency was uniformly 80–90%, as determined by X-Gal staining following cotransfection with pCMV-βGal.
Cells were maintained in culture for 24 hr, then floating and attached cells were harvested and an aliquot was removed and the percent of dead cells was determined by either trypan blue or propidium iodide (PI) dye exclusion assay. A second aliquot was used to assess the percentage of apoptotic cells with subdiploid DNA content by FACS analysis of PI stained, ethanol fixed cells. The remaining cell pellets were lysed in 10 mM HEPES (pH 7.5), 142 mM KCl, 1 mM EGTA, 1 mM DTT, 0.2% NP-40, 0.1 mM PMSF and used for immunoblot analysis or for protease assays.

[1] = tested on: HeLa cell nuclei in cytosolic extract; test: Apoptosis of isolated nuclei in cell-free system (cytochrome c/dATP); details: 0.4 μM protein with 10 μM cytochrome c and 1 mM dATP; 37° C., 60 min; baseline about 15%, cytochrome c/dATP alone >95%
Protocol: (§1) Cells were washed with ice cold buffer A (20 mM Hepes (pH 7.5), 10 mM KCl, 1.5 mM MgCl2, 1 mM EDTA, 1 mM DTT and 0.1 mM PMSF) and suspended in 1 vol buffer A, then incubated on ice for 20 min. 293 cells were disrupted by passage 15× through a 26 gauge needle and Jurkat T cells were disrupted by dounce homogenization in 2 ml using 15 strokes with a pestle B. Cell extracts (10–15 mg total protein/ml) were clarified by centrifugation at 16,000×g for 30 min, then the NaCl concentration was increased by 50 mM. Cytosolic fractions were used immediately or stored frozen at −80° C.
Isolated nuclei were prepared from HeLa cells (Martin et al., supra, 1995). Approximately 5×10^4 to 1×10^5 nuclei were added to 20 μl cytosolic extract and apoptosis was initiated by adding 10 μM horse heart cytochrome c (Sigma, Inc.; St. Louis Mo.) and 1 mM dATP, alone (positive control) or with cytochrome c, dATP and either 0.4 μM GST-XIAP or 0.4 μM GST-Bcl-2. Following incubation at 37° C. for 60 min., nuclei were stained with 1 μg/ml of acridine orange and ethidium bromide and the percentage nuclei with apoptotic features, including extremely condensed chromatin and the genesis of fragmentation of nuclei, was determined.

[2] = tested on: DEVD-pNA hydrolysis activity in 293 cell cytosolic extracts; test: Cytochrome c/dATP-induced caspase activation (DEVD hydrolysis) in 293 cell cytosolic extracts; type: biochemical, human; details: for DEVD-pNA hydrolysis, ΔA405 after 15 min: 293 extracts + cytochrome c/dATP, GST-XIAP 0.2 μM, GST controls 2 μM, His6-S5a 5 μM, untreated ≈0.01
Protocol: as §1
(§2) Caspase activity was assayed by release of either 7-amino-4-trifluoromethyl-coumarin (AFC) or p-nitroanilide (pNA) from benzylyoxycarbonyl-DEVD (SEQ ID NO: 2) or benzylyoxycarbonyl-YVAD (SEQ ID NO: 3) synthetic peptides using a Molecular Devices Spectromax 340 for AFC labeled peptides or Perkin/Elmer LS50B for pNA labeled peptides (see Example II; see, also, Zhou et al., supra, 1997). Cytosolic extracts from 293 cells or Jurkat T cells were used directly (negative control) or were treated with 1 μM cytochrome c and 1 mM dATP or with cytochrome c, dATP and 0.2 μM GST-XIAP. Additional control reactions were performed by substituting 2 μM GST-Bcl-2, GST-Bax, GST-NM23 or GST-CD40 cytosolic domain, or 5 μM His6-S5a protein for GST-XIAP. DEVD-pNA hydrolysis was measured at various times and multiple experiments were performed using several different GST-XIAP preparations.

[3] = tested on: DEVD-pNA hydrolysis activity in Jurkat T cell cytosolic extracts; test: Cytochrome c/dATP-induced caspase activation (DEVD-pNA hydrolysis) in Jurkat T cell cytosolic extracts; type: biochemical; details: for DEVD-pNA hydrolysis, ΔA405 after 15 min: untreated ≈0.02; for DEVD-pNA hydrolysis, ΔA405 after 20 min: untreated ≈0.025
Protocol: as §1, §2

caspase-3 [4] = target: T1, caspase-3 (Homo sapiens, UniProt P42574); test: GST pull-down binding to caspase-3; details: glutathione-Sepharose beads, immunoblot
T1 construct: to produce the 17–20 kDa mature, fully processed large subunit of the active caspase-3 enzyme; a smaller, fully processed, subunit of about 11 kDa; His6; made in house; host or cells: E. coli BL21(DE3)pLysS
T1 sequence (P42574 29-175 limits assumed): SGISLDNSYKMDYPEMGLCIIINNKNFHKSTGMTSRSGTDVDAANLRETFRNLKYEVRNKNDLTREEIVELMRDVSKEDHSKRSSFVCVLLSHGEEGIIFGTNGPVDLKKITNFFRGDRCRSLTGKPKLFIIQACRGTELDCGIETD
T1 sequence (P42574 176-277 limits assumed): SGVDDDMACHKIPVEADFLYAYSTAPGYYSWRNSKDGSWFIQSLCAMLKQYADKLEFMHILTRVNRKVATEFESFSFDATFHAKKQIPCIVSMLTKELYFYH
Protocol: (§3) Following incubation at 4° C. for 60 min, the beads were removed by centrifugation and washed twice with 100 vol 50 mM Tris (pH 7.5), 150 mM KCl, 2 mM DTT and 0.025% Triton-X100, then subjected to SDS-PAGE and immunoblot assay (see Example I.B.3).

caspase-7 [5] = target: T2, caspase-7 (Homo sapiens, UniProt P55210); test: GST pull-down binding to caspase-7; details: glutathione-Sepharose beads, immunoblot
T2 construct: Purified active caspase concentrations ranged from 0.1 nM to 10 nM; His6; made in house; host or cells: E. coli BL21(DE3)pLysS
T2 sequence (P55210 24-198 limits assumed): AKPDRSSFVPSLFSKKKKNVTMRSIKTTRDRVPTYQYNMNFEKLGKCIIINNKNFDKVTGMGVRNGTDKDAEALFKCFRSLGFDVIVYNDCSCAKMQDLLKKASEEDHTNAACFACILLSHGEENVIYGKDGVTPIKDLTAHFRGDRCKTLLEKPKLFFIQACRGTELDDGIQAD
T2 sequence (P55210 207-303 limits assumed): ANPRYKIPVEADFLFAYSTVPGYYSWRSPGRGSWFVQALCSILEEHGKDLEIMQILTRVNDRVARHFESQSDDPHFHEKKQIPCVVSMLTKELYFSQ
Protocol: as §3

caspase-6 = target: T3, caspase-6 (Homo sapiens, UniProt P55212); test: GST pull-down binding to caspase-6; details: glutathione-Sepharose beads, immunoblot
T3 construct: Purified active caspase concentrations ranged from 0.1 nM to 10 nM; His6; made in house; host or cells: E. coli BL21(DE3)pLysS
T3 sequence (P55212 24-179 limits assumed): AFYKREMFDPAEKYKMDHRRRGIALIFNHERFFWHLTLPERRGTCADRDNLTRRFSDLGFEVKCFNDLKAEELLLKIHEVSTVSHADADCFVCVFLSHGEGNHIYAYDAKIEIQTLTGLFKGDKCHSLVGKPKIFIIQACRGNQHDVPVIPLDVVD
T3 sequence (P55212 194-293 limits assumed): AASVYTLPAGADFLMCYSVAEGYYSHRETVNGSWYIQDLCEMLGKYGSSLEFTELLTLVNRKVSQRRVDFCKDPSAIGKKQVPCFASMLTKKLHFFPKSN

caspase-7 [6] = target: T2, caspase-7; test: Inhibition of purified recombinant caspase-7, DEVD substrate hydrolysis and progress curves; type: biochemical; details: DEVD-pNA hydrolysis
caspase-3 [7] = target: T1, caspase-3; test: Inhibition of purified recombinant caspase-3, DEVD substrate hydrolysis and progress curves; type: biochemical; details: DEVD-pNA hydrolysis
Protocol: Purified recombinant caspase-1, caspase-3, caspase-6, caspase-7 or caspase-8 were incubated with DEVD-pNA, either alone or with a 10-fold to 50-fold molar excess of GST-XIAP ([…]) and substrate hydrolysis was measured. Purified active caspase concentrations ranged from 0.1 nM to 10 nM. XIAP concentration ranged from 0.1 nM to 500 nM. Assays were performed in caspase buffer (50 mM Tris, pH 7.4, 100 mM NaCl, 10% sucrose, 5–10 mM DTT, 1 mM EDTA and 0.1% CHAPS).
Equilibria were determined from progress curves when substrate hydrolysis reached a steady-state; slopes were calculated by curve fit analysis using the cricket graph program. Experiments were performed using purified recombinant caspase-3, caspase-6, or caspase-7. DEVD-AFC hydrolysis was measured using 0.1 nM caspase and a range of concentrations (0.2 to 12 μM) of recombinant XIAP (rXIAP). […] Average ratio velocities (vi/vo, where “vi” indicates presence of GST-XIAP and “vo” indicates absence of GST-XIAP) were determined.
Caspase activity was determined essentially as described in Example II, using the benzylyoxycarbonyl-DEVD-AFC (SEQ ID NO: 2) substrate and was assayed at 37° C. using the Perkin-Elmer LS50B fluorometric plate reader in the kinetic mode with excitation and emission wavelengths of 400 nm and 505 nm, respectively. […] Reactions were performed in caspase buffer (50 mM Hepes, 100 mM NaCl, 1 mM EDTA, 0.1% CHAPS, 10% sucrose, 5 mM DTT). The inhibition constant, Ki, was calculated as described (Zhou et al., supra, 1997). Immunoblot analysis was performed as described in Example I.B.3.

Molecule: CC(C)[C@H](NC(=O)OCc1ccccc1)C(=O)N[C@@H](C)C(=O)N[C@@H](CC(=O)O)C(=O)CF [zVAD-fmk, N-benzyloxycarbonyl-Val-Ala-Asp fluoromethylketone, reference compound] (Cbz-Val-Ala-Asp-CH2F)
apoptotic cells (PI staining) in Bax expressing cells (293T cells): about 5%

Molecule: GST-Bcl-2: recombinant control protein, GST fusion of Bcl-2 [reference compound]
apoptotic nuclei [1]: greater than 95%
DEVD-pNA hydrolysis, ΔA405 after 15 min [2]: ≈ 0.1
DEVD-pNA hydrolysis, ΔA405 after 15 min [3]: ≈ 0.09
DEVD-pNA hydrolysis, ΔA405 after 20 min [3]: ≈ 0.1

Further lines, with some results ahead:

binding of caspase-6 (in words) (caspase-6): No caspase binding was observed
inhibition of caspase-7 in vitro (in words) (caspase-7 [6]): had no effect
inhibition of caspase-3 in vitro (in words) (caspase-3 [7]): had no effect
B1: GST-CD40 cytosolic domain: recombinant control protein, GST fusion of CD40 cytosolic domain (protein)
chain: KKVAKKPTNKAPHPKQEPQEINFPDDLPGSNTAAPVQETLHGCQPVTQEDGKESRISVQERQ
modifications: not fully specified; also: GST fusion partner not in chain
binding of caspase-3 (in words) (caspase-3 [4]): No caspase binding was observed; also recorded: did not bind
binding of caspase-7 (in words) (caspase-7 [5]): No caspase binding was observed; also recorded: did not bind
DEVD-pNA hydrolysis, ΔA405 after 15 min [2]: ≈ 0.1
DEVD-pNA hydrolysis, ΔA405 after 15 min [3]: ≈ 0.09
DEVD-pNA hydrolysis, ΔA405 after 20 min [3]: ≈ 0.1

binding of caspase-3 (in words) (caspase-3 [4]): bound
binding of caspase-7 (in words) (caspase-7 [5]): bound
B2: c-IAP-2(BIR): construct comprising the BIR domains of c-IAP-2 (positions 1 to 335) (protein)
chain: MNIVENSIFLSNLMKSANTFELKYDLSCELYRMSTYSTFPAGVPVSERSLARAGFYYTGVNDKVKCFCCGLMLDNWKRGDSPTEKHKKLYPSCRFVQSLNSVNNLEATSQPTFPSSVTNSTHSLLPGTENSGYFRGSYSNSPSNPVNSRANQDFSALMRSSYHCAMNNENARLLTFQTWPLTFLSPTDLAKAGFYYIGPGDRVACFACGGKLSNWEPKDNAMSEHLRHFPKCPFIENQLQDTSRYTVSNLSMQTHAARFKTFFNWPSSVLVNPEQLASAGFYYVGNSDDVKCFCCDGGLRCWESGDDPWVQHAKWFPRCEYLIRIKGQEFIRQVQ
modifications: left off: a dimerising Fc or GST
DEVD hydrolysis in activated 293 cell cytosolic extracts (in words) ([2]; 3 μM, extracts activated 30 min with cytochrome c and dATP): inhibited DEVD hydrolysis
